These results are taken from patent publication US20200199241A1 (Chugai, published 2020).

This experiment concerns the target T1, soluble human FcRn complexed with β2-microglobulin (human, UniProt P61769 21-119, limits assumed).
T1 construct: also called hFcRn
The experiment can be described thus: Biacore SPR, pH 7.0. (Surface plasmon resonance follows binding to a sensor surface in real time, without labels.)
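Note: test antibodies captured on a Protein L chip with human FcRn flowed over as analyte, KD obtained as the ratio of dissociation to association rate constants.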

T1 sequence (chain, as listed by the source limits assumed, chain 1 of 2): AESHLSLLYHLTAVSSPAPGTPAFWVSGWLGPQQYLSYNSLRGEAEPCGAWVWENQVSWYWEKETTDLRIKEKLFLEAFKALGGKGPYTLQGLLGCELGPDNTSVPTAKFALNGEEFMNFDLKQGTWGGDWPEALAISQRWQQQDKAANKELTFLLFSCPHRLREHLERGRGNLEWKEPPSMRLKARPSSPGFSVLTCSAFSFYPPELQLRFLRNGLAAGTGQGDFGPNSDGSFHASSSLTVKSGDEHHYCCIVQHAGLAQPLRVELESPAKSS
T1 sequence (P61769 21-119 limits assumed, chain 2 of 2): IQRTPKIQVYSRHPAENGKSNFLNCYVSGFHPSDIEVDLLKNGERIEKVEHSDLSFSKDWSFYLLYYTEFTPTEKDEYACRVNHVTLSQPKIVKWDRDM
Experimental: A kinetic analysis of binding between human FcRn and the aforementioned antibodies was carried out using the BIACORE™ T100 or T200 surface plasmon resonance system (GE Healthcare). The antibodies being tested were captured on the CM4 Sensor Chip (GE Healthcare) on which a suitable amount of Protein L (ACTIGEN® protein (Alltech)) was suitably immobilized by amine coupling. Next, diluted human FcRn and a running buffer used as a blank were injected to allow the human FcRn to interact with the antibody captured on the sensor chip. A buffer consisting of 50 mmol/L sodium phosphate, 150 mmol/L NaCl and 0.05% (w/v) polysorbate 20 (Tween 20®) (pH 7.0 or pH 7.4) was used for the running buffer, and each buffer was also used to dilute the human FcRn. 10 mmol/L glycine-HCl (pH 1.5) was used to regenerate the sensor chip. All measurements of binding were carried out at 25° C. The KD(M) of each antibody to human FcRn was calculated based on kinetics parameters, i.e., the association rate constant ka (1/Ms) and the dissociation rate constant kd (1/s) calculated from a sensorgram obtained by the measurement. The BIACORE™ T100 or T200 Evaluation Software (GE Healthcare) was used to calculate each parameter.

B1: IgG1-F871 (antibody)
heavy: QVQLQESGPGLVKPSETLSLTCAVSGHSISHDHAWSWVRQPPGEGLEWIGFISYSGITNYNPSLQGRVTISRDNSKNTLYLQMNSLRAEDTAVYYCARSLARTTAMDYWGEGTLVTVSSASTKGPSVFPLAPSSKSTSGGTAALGCLVKDYFPEPVTVSWNSGALTSGVHTFPAVLQSSGLYSLSSVVTVPSSSLGTQTYICNVNHKPSNTKVDKKVEPKSCDKTHTCPPCPAPELRGGPKVFLFPPKPKDTLYISRTPEVTCVVVDVSHEDPEVKFNWYVDGVEVHNAKTKPREEQYNSTYRVVSVLQVLHADWLNGKEYKCKVSNKALPAPIEKTISKAKGQPREPQVYTLPPSRDELTKNQVSLTCLVKGFYPSDIAVEWESNGQPENNYKTTPPVLDSDGSFFLYSKLTVDKSRWQQGNVFSCSVMHEALHYHYTQKSLSLSP
light: not shown
notes: EU numbering; copies: 2 + 2
Take B1: the Kd – broadly, the equilibrium constant for the complex coming apart – amounted to 71 nM.

B2: IgG1-F880 (antibody)
heavy: QVQLQESGPGLVKPSETLSLTCAVSGHSISHDHAWSWVRQPPGEGLEWIGFISYSGITNYNPSLQGRVTISRDNSKNTLYLQMNSLRAEDTAVYYCARSLARTTAMDYWGEGTLVTVSSASTKGPSVFPLAPSSKSTSGGTAALGCLVKDYFPEPVTVSWNSGALTSGVHTFPAVLQSSGLYSLSSVVTVPSSSLGTQTYICNVNHKPSNTKVDKKVEPKSCDKTHTCPPCPAPELLGGPSVFLFPPKPKDTLYISRTPEVTCVVVDVSHEDPEVKFNWYVDGVEVHNAKTKPREEQYNSTYRVVSVLTVLHQDWLNGKEYKCKVSNKALPAPIEKTISKAKGQPREPQVYTLPPSRDELTKNQVSLTCLVKGFYPSDIAVEWESNGQPENNYKTTPPVLDSDGSFFLYSKLTVDKSRWQQGNVFSCSVMHEALHYHHTQKSLSLSP
light: not shown
notes: EU numbering; copies: 2 + 2
B2 showed a Kd of 390 nM.

B3: IgG1-F873 (antibody)
heavy: QVQLQESGPGLVKPSETLSLTCAVSGHSISHDHAWSWVRQPPGEGLEWIGFISYSGITNYNPSLQGRVTISRDNSKNTLYLQMNSLRAEDTAVYYCARSLARTTAMDYWGEGTLVTVSSASTKGPSVFPLAPSSKSTSGGTAALGCLVKDYFPEPVTVSWNSGALTSGVHTFPAVLQSSGLYSLSSVVTVPSSSLGTQTYICNVNHKPSNTKVDKKVEPKSCDKTHTCPPCPAPELRGGPKVFLFPPKPKDTLYISRTPEVTCVVVDVSHEDPEVKFNWYVDGVEVHEAKTKPREEQYNSTYRVVSVLTVLHQDWLNGKEYKCKVSNKALPAPIEKTISKAKGQPREPQVYTLPPSRDELTKNQVSLTCLVKGFYPSDIAVEWESNGQPENNYKTTPPVLDSDGSFFLYSKLTVDKSRWQQGNVFSCSVMHEALHYHYTQKSLSLSP
light: not shown
notes: EU numbering; copies: 2 + 2
The molecule B3 had a Kd of 120 nM.

B4: IgG1-F884 (antibody)
heavy: QVQLQESGPGLVKPSETLSLTCAVSGHSISHDHAWSWVRQPPGEGLEWIGFISYSGITNYNPSLQGRVTISRDNSKNTLYLQMNSLRAEDTAVYYCARSLARTTAMDYWGEGTLVTVSSASTKGPSVFPLAPSSKSTSGGTAALGCLVKDYFPEPVTVSWNSGALTSGVHTFPAVLQSSGLYSLSSVVTVPSSSLGTQTYICNVNHKPSNTKVDKKVEPKSCDKTHTCPPCPAPELLGGPSVFLFPPKPKDTLYISRTPEVTCVVVDVSHEDPEVKFNWYVDGVEVHNAKTKPREEQYNSTYRVVSVLTVLHQDWLNGKEYKCKVSNKALPAPIEKTISKAKGQPREPQVYTLPPSRDELTKNQVSLTCLVKGFYPSDIAVEWESNGQPENNYKTTPPVLDSDGSFFLYSKLTVDKSRWQQGNVFSCSVMHEALHYHNTQKSLSLSP
light: not shown
notes: EU numbering; copies: 2 + 2
B4 gave a Kd of 400 nM.

B5: IgG1-F875 (antibody)
heavy: QVQLQESGPGLVKPSETLSLTCAVSGHSISHDHAWSWVRQPPGEGLEWIGFISYSGITNYNPSLQGRVTISRDNSKNTLYLQMNSLRAEDTAVYYCARSLARTTAMDYWGEGTLVTVSSASTKGPSVFPLAPSSKSTSGGTAALGCLVKDYFPEPVTVSWNSGALTSGVHTFPAVLQSSGLYSLSSVVTVPSSSLGTQTYICNVNHKPSNTKVDKKVEPKSCDKTHTCPPCPAPELLGGPSVFLFPPKPKDTLYISRTPEVTCVVVDVSHEDPEVKFNWYVDGVEVHNAKTKPREEQYNSTYRVVSVLTVLHQDWLNGKEYKCKVSNKALPAPIEKTISKAKGQPREPQVYTLPPSRDELTKNQVSLTCLVKGFYPSDIAVEWESNGQPENNYKTTPPVLDSDGSFFLYSKLTVDKSRWQQGNVFSCSVMHEALHYHATQKSLSLSP
light: not shown
notes: EU numbering; copies: 2 + 2
As to B5, the Kd came to 480 nM.

B6: IgG1-F872 (antibody)
heavy: QVQLQESGPGLVKPSETLSLTCAVSGHSISHDHAWSWVRQPPGEGLEWIGFISYSGITNYNPSLQGRVTISRDNSKNTLYLQMNSLRAEDTAVYYCARSLARTTAMDYWGEGTLVTVSSASTKGPSVFPLAPSSKSTSGGTAALGCLVKDYFPEPVTVSWNSGALTSGVHTFPAVLQSSGLYSLSSVVTVPSSSLGTQTYICNVNHKPSNTKVDKKVEPKSCDKTHTCPPCPAPELKGGPKVFLFPPKPKDTLYISRTPEVTCVVVDVSHEDPEVKFNWYVDGVEVHEAKTKPREEQYNSTYRVVSVLTVLHQDWLNGKEYKCKVSNKALPAPIEKTISKAKGQPREPQVYTLPPSRDELTKNQVSLTCLVKGFYPSDIAVEWESNGQPENNYKTTPPVLDSDGSFFLYSKLTVDKSRWQQGNVFSCSVMHEALHYHYTQKSLSLSP
light: not shown
notes: EU numbering; copies: 2 + 2
In turn, B6 gave a dissociation constant (Kd) of 130 nM.

B7: IgG1-F878 (antibody)
heavy: QVQLQESGPGLVKPSETLSLTCAVSGHSISHDHAWSWVRQPPGEGLEWIGFISYSGITNYNPSLQGRVTISRDNSKNTLYLQMNSLRAEDTAVYYCARSLARTTAMDYWGEGTLVTVSSASTKGPSVFPLAPSSKSTSGGTAALGCLVKDYFPEPVTVSWNSGALTSGVHTFPAVLQSSGLYSLSSVVTVPSSSLGTQTYICNVNHKPSNTKVDKKVEPKSCDKTHTCPPCPAPELLGGPSVFLFPPKPKDTLYISRTPEVTCVVVDVSHEDPEVKFNWYVDGVEVHNAKTKPREEQYNSTYRVVSVLTVLHQDWLNGKEYKCKVSNKALPAPIEKTISKAKGQPREPQVYTLPPSRDELTKNQVSLTCLVKGFYPSDIAVEWESNGQPENNYKTTPPVLDSDGSFFLYSKLTVDKSRWQQGNVFSCSVMHEALHYHFTQKSLSLSP
light: not shown
notes: EU numbering; copies: 2 + 2
For B7, the Kd was 190 nM. This Kd and that of the molecule before are within 1.5-fold of each other.

B8: IgG1-F879 (antibody)
heavy: QVQLQESGPGLVKPSETLSLTCAVSGHSISHDHAWSWVRQPPGEGLEWIGFISYSGITNYNPSLQGRVTISRDNSKNTLYLQMNSLRAEDTAVYYCARSLARTTAMDYWGEGTLVTVSSASTKGPSVFPLAPSSKSTSGGTAALGCLVKDYFPEPVTVSWNSGALTSGVHTFPAVLQSSGLYSLSSVVTVPSSSLGTQTYICNVNHKPSNTKVDKKVEPKSCDKTHTCPPCPAPELLGGPSVFLFPPKPKDTLYISRTPEVTCVVVDVSHEDPEVKFNWYVDGVEVHNAKTKPREEQYNSTYRVVSVLTVLHQDWLNGKEYKCKVSNKALPAPIEKTISKAKGQPREPQVYTLPPSRDELTKNQVSLTCLVKGFYPSDIAVEWESNGQPENNYKTTPPVLDSDGSFFLYSKLTVDKSRWQQGNVFSCSVMHEALHYHGTQKSLSLSP
light: not shown
notes: EU numbering; copies: 2 + 2
On to B8, for which the Kd was 920 nM.

B9: IgG1-F881 (antibody)
heavy: QVQLQESGPGLVKPSETLSLTCAVSGHSISHDHAWSWVRQPPGEGLEWIGFISYSGITNYNPSLQGRVTISRDNSKNTLYLQMNSLRAEDTAVYYCARSLARTTAMDYWGEGTLVTVSSASTKGPSVFPLAPSSKSTSGGTAALGCLVKDYFPEPVTVSWNSGALTSGVHTFPAVLQSSGLYSLSSVVTVPSSSLGTQTYICNVNHKPSNTKVDKKVEPKSCDKTHTCPPCPAPELLGGPSVFLFPPKPKDTLYISRTPEVTCVVVDVSHEDPEVKFNWYVDGVEVHNAKTKPREEQYNSTYRVVSVLTVLHQDWLNGKEYKCKVSNKALPAPIEKTISKAKGQPREPQVYTLPPSRDELTKNQVSLTCLVKGFYPSDIAVEWESNGQPENNYKTTPPVLDSDGSFFLYSKLTVDKSRWQQGNVFSCSVMHEALHYHKTQKSLSLSP
light: not shown
notes: EU numbering; copies: 2 + 2
For B9, the Kd is 310 nM.

B10: IgG1-F882 (antibody)
heavy: QVQLQESGPGLVKPSETLSLTCAVSGHSISHDHAWSWVRQPPGEGLEWIGFISYSGITNYNPSLQGRVTISRDNSKNTLYLQMNSLRAEDTAVYYCARSLARTTAMDYWGEGTLVTVSSASTKGPSVFPLAPSSKSTSGGTAALGCLVKDYFPEPVTVSWNSGALTSGVHTFPAVLQSSGLYSLSSVVTVPSSSLGTQTYICNVNHKPSNTKVDKKVEPKSCDKTHTCPPCPAPELLGGPSVFLFPPKPKDTLYISRTPEVTCVVVDVSHEDPEVKFNWYVDGVEVHNAKTKPREEQYNSTYRVVSVLTVLHQDWLNGKEYKCKVSNKALPAPIEKTISKAKGQPREPQVYTLPPSRDELTKNQVSLTCLVKGFYPSDIAVEWESNGQPENNYKTTPPVLDSDGSFFLYSKLTVDKSRWQQGNVFSCSVMHEALHYHLTQKSLSLSP
light: not shown
notes: EU numbering; copies: 2 + 2
With B10, binding was put at a Kd of 130 nM.

B11: IgG1-F883 (antibody)
heavy: QVQLQESGPGLVKPSETLSLTCAVSGHSISHDHAWSWVRQPPGEGLEWIGFISYSGITNYNPSLQGRVTISRDNSKNTLYLQMNSLRAEDTAVYYCARSLARTTAMDYWGEGTLVTVSSASTKGPSVFPLAPSSKSTSGGTAALGCLVKDYFPEPVTVSWNSGALTSGVHTFPAVLQSSGLYSLSSVVTVPSSSLGTQTYICNVNHKPSNTKVDKKVEPKSCDKTHTCPPCPAPELLGGPSVFLFPPKPKDTLYISRTPEVTCVVVDVSHEDPEVKFNWYVDGVEVHNAKTKPREEQYNSTYRVVSVLTVLHQDWLNGKEYKCKVSNKALPAPIEKTISKAKGQPREPQVYTLPPSRDELTKNQVSLTCLVKGFYPSDIAVEWESNGQPENNYKTTPPVLDSDGSFFLYSKLTVDKSRWQQGNVFSCSVMHEALHYHMTQKSLSLSP
light: not shown
notes: EU numbering; copies: 2 + 2
Consider B11, for which the Kd came out at 210 nM. This Kd is about 1.6-fold higher than that of the molecule before.

B12: IgG1-F877 (antibody)
heavy: QVQLQESGPGLVKPSETLSLTCAVSGHSISHDHAWSWVRQPPGEGLEWIGFISYSGITNYNPSLQGRVTISRDNSKNTLYLQMNSLRAEDTAVYYCARSLARTTAMDYWGEGTLVTVSSASTKGPSVFPLAPSSKSTSGGTAALGCLVKDYFPEPVTVSWNSGALTSGVHTFPAVLQSSGLYSLSSVVTVPSSSLGTQTYICNVNHKPSNTKVDKKVEPKSCDKTHTCPPCPAPELLGGPSVFLFPPKPKDTLYISRTPEVTCVVVDVSHEDPEVKFNWYVDGVEVHNAKTKPREEQYNSTYRVVSVLTVLHQDWLNGKEYKCKVSNKALPAPIEKTISKAKGQPREPQVYTLPPSRDELTKNQVSLTCLVKGFYPSDIAVEWESNGQPENNYKTTPPVLDSDGSFFLYSKLTVDKSRWQQGNVFSCSVMHEALHYHETQKSLSLSP
light: not shown
notes: EU numbering; copies: 2 + 2
In the case of B12, the Kd worked out at 830 nM.
